# Assay results taken from patent US20230295338A1 (YMMUNOBIO, published 2023).
# T1: human CEACAM1 (human, UniProt P13688 35-526)
# T1 construct: Expressed on CHO transfectants; also called huCEACAM1; CHO-CEACAM1
# T1 sequence: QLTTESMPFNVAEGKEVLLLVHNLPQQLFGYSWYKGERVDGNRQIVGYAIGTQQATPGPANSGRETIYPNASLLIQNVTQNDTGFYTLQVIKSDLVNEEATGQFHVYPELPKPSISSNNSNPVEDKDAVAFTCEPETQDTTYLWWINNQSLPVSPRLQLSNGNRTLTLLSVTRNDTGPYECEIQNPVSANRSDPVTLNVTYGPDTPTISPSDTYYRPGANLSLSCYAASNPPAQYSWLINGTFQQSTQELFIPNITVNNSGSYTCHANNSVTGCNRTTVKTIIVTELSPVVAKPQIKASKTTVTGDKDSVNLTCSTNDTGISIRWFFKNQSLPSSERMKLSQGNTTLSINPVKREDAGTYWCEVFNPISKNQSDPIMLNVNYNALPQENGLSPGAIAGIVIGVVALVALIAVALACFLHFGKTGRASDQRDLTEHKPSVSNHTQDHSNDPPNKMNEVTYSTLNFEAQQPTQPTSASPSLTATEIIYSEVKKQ
# T2: human CEACAM3 (human, UniProt P40198 35-252)
# T2 construct: whole, on cells; also called huCEACAM3; CHO transfectants expressing human CEACAM3
# T2 sequence (looked up): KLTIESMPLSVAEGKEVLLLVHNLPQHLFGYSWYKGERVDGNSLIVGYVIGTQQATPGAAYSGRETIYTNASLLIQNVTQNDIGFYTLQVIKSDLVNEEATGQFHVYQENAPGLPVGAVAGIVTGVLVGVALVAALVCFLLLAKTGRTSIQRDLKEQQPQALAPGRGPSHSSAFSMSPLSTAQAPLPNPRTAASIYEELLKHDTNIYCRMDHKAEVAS
# T3: peptide P-Q-Q-L-F-G-Y-S-W-Y (human)
# T3 construct: coated on the ELISA plate
# T3 peptide: PQQLFGYSWY
# T4: human CEACAM1-Fc fusion protein (human, UniProt P13688 35-428)
# T4 construct: Said to comprise the entire extracellular domain of human CEACAM1; also called CEACAM1-huFc; recombinant CEACAM1-Fc; not shown: human IgG Fc (huFc)
# T4 sequence: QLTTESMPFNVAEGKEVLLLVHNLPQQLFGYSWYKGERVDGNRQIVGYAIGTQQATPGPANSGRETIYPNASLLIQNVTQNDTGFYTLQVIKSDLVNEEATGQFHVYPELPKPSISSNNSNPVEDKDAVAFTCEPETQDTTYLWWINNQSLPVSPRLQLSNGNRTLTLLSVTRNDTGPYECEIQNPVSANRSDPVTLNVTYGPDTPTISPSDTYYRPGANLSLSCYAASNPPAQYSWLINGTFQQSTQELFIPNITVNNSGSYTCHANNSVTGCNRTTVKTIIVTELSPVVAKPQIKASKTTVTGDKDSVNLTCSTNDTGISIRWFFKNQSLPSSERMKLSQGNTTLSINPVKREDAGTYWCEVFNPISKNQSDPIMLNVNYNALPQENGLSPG
# T5: human CEACAM3-Fc (human, UniProt P40198 35-155, limits assumed)
# T5 construct: also called recombinant CEACAM-Fc protein; not shown: human IgG Fc
# T5 sequence (looked up): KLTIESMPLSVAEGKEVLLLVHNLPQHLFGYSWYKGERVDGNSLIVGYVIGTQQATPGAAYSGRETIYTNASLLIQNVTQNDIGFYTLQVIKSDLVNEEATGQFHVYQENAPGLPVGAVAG
# T6: human CEACAM5-Fc (human, UniProt P06731 35-685, limits assumed)
# T6 construct: also called recombinant CEACAM-Fc protein; not shown: human IgG Fc
# T6 sequence (looked up): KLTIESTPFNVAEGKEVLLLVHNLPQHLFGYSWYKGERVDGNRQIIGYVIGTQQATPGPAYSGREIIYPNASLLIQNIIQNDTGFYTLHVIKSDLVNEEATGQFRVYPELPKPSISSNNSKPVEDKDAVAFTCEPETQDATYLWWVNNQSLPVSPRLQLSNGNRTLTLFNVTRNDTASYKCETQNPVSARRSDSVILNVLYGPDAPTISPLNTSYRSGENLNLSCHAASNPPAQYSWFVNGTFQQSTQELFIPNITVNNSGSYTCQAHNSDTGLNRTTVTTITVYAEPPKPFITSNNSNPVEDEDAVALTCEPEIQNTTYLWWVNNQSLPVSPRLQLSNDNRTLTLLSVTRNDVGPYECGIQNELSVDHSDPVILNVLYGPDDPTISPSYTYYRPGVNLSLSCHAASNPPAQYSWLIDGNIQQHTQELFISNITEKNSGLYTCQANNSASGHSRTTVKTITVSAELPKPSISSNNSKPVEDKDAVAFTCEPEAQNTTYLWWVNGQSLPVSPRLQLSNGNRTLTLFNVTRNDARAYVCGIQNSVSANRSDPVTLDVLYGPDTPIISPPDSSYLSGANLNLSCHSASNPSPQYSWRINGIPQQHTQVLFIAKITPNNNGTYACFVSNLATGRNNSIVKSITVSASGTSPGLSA
# T7: human CEACAM8-Fc (human, UniProt P31997 35-320, limits assumed)
# T7 construct: also called recombinant CEACAM-Fc protein; not shown: human IgG Fc
# T7 sequence (looked up): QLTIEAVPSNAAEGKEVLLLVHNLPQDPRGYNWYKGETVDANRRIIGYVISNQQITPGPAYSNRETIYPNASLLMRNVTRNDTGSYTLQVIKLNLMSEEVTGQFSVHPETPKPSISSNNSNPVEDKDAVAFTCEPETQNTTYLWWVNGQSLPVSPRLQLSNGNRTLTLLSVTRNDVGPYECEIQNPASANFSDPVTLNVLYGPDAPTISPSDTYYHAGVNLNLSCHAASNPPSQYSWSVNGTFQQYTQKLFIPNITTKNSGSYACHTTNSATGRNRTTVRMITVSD
# T8: human CEACAM6-Fc (human, UniProt P40199 35-320, limits assumed)
# T8 construct: also called recombinant CEACAM-Fc protein; not shown: human IgG Fc
# T8 sequence (looked up): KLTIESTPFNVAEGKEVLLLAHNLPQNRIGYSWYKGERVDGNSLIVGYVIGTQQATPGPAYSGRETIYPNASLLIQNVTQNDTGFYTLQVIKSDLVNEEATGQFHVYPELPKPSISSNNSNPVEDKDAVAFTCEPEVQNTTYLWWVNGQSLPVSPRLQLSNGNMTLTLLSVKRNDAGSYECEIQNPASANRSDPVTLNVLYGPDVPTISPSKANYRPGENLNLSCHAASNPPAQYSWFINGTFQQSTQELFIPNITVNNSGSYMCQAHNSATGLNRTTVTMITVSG
# B1: CC1/3/5-Sab (antibody, V domains shown)
# VH: EVQLQQSGPELVKPGTSVKMSCKASGYTFTTYVMHWVQQKPGQGLDWIGFFNPYNDGTKYNEKFKGKATLTSDKSSSTAYMELSSLTSEDSAVYYCARWAYDGSYAYWGQGTTLTVSS
# VL: DIQMTQSSSYLSVFLGGRVTITCKASDHINNWLAWYQQKPGNAPRLLISGATSLETGVPSRFSGSGSGKDYTLSIISLQTEDVATYYCQQYWRTPFTFGSGTKLEIK
# notes: also called mAb CC1/3/5-Sab; CC1/3/4-Sab
# Legend:
# human CEACAM1 = molecular target: T1, human CEACAM1; experiment: flow cytometry on CHO transfectants
# Protocol: (§1) After washing, FITC-labeled secondary goat anti mouse antibody was applied. Cell surface binding was analyzed utilizing a FACScalibur flow cytometer (Becton Dickinson).
# human CEACAM3 = molecular target: T2, human CEACAM3; experiment: flow cytometry on CHO transfectants
# Protocol: as §1
# CEACAM1-dN-Fc = molecular target: T9, CEACAM1-dN-Fc (human, UniProt P13688 143-428, limits assumed); experiment: solid phase ELISA, CEACAM-Fc coated (FIG. 19)
# T9 construct: Human CEACAM1 extracellular part without the N domain, fused to Fc; also called CEACAM1 variant lacking the N domain; not shown: human IgG Fc
# [1] = molecular target: T3, peptide P-Q-Q-L-F-G-Y-S-W-Y; experiment: solid phase peptide ELISA, mAb 5 µg/ml (FIG. 20)
# Protocol: After three times washing with PBS, samples were incubated with goat anti mouse-HRP (Jackson ImmunoResearch, 1:10.000 dilution in 1% BSA/PBS, 100 µl/well). Then plates were washed three times with PBS, developed with 100 µl TMB substrate, blocked with 100 µl 0.2 M H2SO4 and measured by the TECAN-ELISA reader sunrise at 450 nm. Samples were run in triplicates. Results shown are representative for three independent repeats.
# [2] = molecular target: T4, human CEACAM1-Fc fusion protein; experiment: solid phase ELISA, CEACAM-Fc coated, mAb 5 µg/ml (FIG. 19)
# Protocol: (§2) After three times washing with PBS, samples were incubated with goat anti mouse-HRP (Jackson ImmunoResearch, 1:10.000 dilution in 1% BSA/PBS, 100 µl/well). To detect proper loading of the Fc proteins samples were also detected by HRP coupled goat anti human Fc antibody (Jackson ImmunoResearch, 1:10.000 dilution in 1% BSA/PBS, 100 µl/well). Then plates were washed three times with PBS, developed with 100 µl TMB substrate, blocked with 100 µl 0.2 M H2SO4 and measured by the TECAN-ELISA reader sunrise at 450 nm. Samples were run in triplicates. Results shown are representative for three independent repeats.
# human CEACAM3-Fc = molecular target: T5, human CEACAM3-Fc; experiment: as above
# Protocol: as §2
# human CEACAM5-Fc = molecular target: T6, human CEACAM5-Fc; experiment: as above
# Protocol: as §2
# human CEACAM8-Fc = molecular target: T7, human CEACAM8-Fc; experiment: sandwich ELISA, CC1/3/5-Sab coated, CEACAM-Fc proteins in solution
# Protocol: (§3) After blocking remaining binding sites with BSA, indicated CEACAM-Fc proteins were incubated. For detection, the HRP-coupled goat anti human Fc antibody was utilized. After washing, TMB substrate was added. The enzymatic reaction was stopped by sulfuric acid and measured in a Tecan Sunrise ELISA plate reader at 450 nm. Data are representative of three independent experiments.
# (§4) After blocking remaining binding sites with 1% BSA/PBS, indicated CEACAM-Fc proteins (0.1 µg/ml diluted in 1% BSA/PBS) were incubated for 2 h at RT. For detection, 100 µl HRP-coupled goat anti human Fc antibody diluted 1:10.000 in 1% BSA/PBS was utilized. After washing, TMB substrate was added. The enzymatic reaction was stopped by sulfuric acid and measured in a Tecan Sunrise ELISA plate reader at 450 nm. Assays were performed in triplicates and data shown are representative of three independent experiments.
# human CEACAM6-Fc = molecular target: T8, human CEACAM6-Fc; experiment: as above
# Protocol: as §3, §4
binder,measurement,setting,value
B1,binding result,human CEACAM1,binds
same,binding result,human CEACAM3,binds
same,binding result,CEACAM1-dN-Fc,no binding (tested: 5 µg/ml)
same,binding result,[1],binds
same,binding result,[2],binds
same,binding result,human CEACAM3-Fc,binds
same,binding result,human CEACAM5-Fc,binds
same,binding result,human CEACAM8-Fc,no binding (tested: 0.1 µg/ml CEACAM-Fc)
same,binding result,human CEACAM6-Fc,no binding (tested: 0.1 µg/ml CEACAM-Fc)
